Results reported in patent US20210324050A1 (VANDERBILT UNIVERSITY, published 2021).

T1: GII.4 Sydney 2012 virus-like particles (VLPs), based on strain AFV08795.1 (human norovirus GII.4 Sydney 2012, UniProt P54635 1-538)
T1 construct: also called GII.4 VLPs
T1 chain: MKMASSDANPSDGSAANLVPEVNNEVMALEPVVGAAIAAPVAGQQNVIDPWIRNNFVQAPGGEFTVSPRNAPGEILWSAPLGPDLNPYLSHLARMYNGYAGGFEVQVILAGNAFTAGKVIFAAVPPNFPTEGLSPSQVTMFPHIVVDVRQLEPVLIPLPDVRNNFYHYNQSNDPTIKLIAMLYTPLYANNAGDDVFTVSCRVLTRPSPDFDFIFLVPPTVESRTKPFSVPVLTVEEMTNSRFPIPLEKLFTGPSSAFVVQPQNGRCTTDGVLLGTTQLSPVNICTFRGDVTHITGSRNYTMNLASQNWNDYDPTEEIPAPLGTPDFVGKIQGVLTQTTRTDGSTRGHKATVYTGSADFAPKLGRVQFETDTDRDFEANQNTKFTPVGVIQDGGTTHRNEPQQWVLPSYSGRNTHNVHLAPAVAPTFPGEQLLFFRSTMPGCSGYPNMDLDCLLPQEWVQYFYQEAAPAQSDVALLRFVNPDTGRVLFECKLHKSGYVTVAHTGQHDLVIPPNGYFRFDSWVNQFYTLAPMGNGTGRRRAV

T2: GII.4 Houston 2002 (ABY27560.1) VLPs (human norovirus GII.4 Houston 2002, UniProt P54635 1-539)
T2 construct: also called GII.4 Houston 2002 antigen; GII.4 Houston VLPs
T2 chain: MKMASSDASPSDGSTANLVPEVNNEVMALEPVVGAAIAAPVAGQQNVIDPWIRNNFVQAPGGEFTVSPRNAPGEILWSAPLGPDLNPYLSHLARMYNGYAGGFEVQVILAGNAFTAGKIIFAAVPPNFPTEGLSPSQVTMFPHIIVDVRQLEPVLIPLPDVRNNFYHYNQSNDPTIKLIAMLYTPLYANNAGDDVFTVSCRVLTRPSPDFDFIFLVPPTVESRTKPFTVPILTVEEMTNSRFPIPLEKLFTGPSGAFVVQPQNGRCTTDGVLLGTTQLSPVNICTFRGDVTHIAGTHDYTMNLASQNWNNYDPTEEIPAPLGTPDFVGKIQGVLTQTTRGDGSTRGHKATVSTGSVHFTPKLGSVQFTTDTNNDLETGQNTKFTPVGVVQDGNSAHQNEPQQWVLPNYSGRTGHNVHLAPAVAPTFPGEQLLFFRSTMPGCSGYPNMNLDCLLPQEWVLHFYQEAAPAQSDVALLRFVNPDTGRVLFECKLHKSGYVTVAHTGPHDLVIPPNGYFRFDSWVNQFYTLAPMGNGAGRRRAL


What was measured:
[1] = biological target: T1, GII.4 Sydney 2012 virus-like particles …; assay: indirect ELISA on coated GII.4 Sydney 2012 VLPs
[2] = biological target: T2, GII.4 Houston 2002 (ABY27560.1) VLPs; assay: ELISA on GII.4 Houston 2002 VLPs
[3] = biological target: GII.4 Sydney 2012 virus-like particles (VLPs), based on strain AFV08795.1 (human norovirus GII.4 Sydney 2012, UniProt P54635 1-538); assay: indirect ELISA on coated GII.4 Sydney 2012 VLPs

Binder | EC50 [1] [µg/mL] | binding result [2] | EC50 [3] [µg/mL]
NORO-256A (antibody, V domains shown) VH: QVQLVESGGGVVQAGRSLRLSCAASGFTFRSYGMHWVRQAPGKGLEWVAIISYDGGSKYYADSVKGRFTISRDNSKNTLYLQMNSLRVEDTALYYCAKDFLRVYSYGWHSFDIWGLGTLVTVSS VL: QSVLTQPPSVSAAPGQRVTISCSGSSSNIGTYYVSWYQHLPGTAPKLLIYDNDKRPSGIPDRFSASKSGTSATLDIAGLQTGDEADYYCGTWDLSLTAGWVFGGGTKLTVL | 0.9 | binds | 
NORO-250B (antibody, V domains shown) VH: QVQLVESGGGLVKPGGSLTLSCAASGFTFSDYYMNWIRQAPGKRLEWVSYISGIMSSTNYADSVKGRFTISRDTAKKSVYLQMNSLRAEDTAVYYCARATSQGATSYYFDSWGQGTLVTVSS VL: QSVLTQPPSVSGAPGQRVTISCTGSSSNIGADYDVHWYQQLPGAAPRLLIYADINRPSGVPDRFSGSKSGTSASLAITGLQAEDEADYYCQSYDRSVSGSAVFGGGTKVTVL |  | binds | 
NORO-273A (antibody, V domains shown) VH: QVQLVQSGAEVKKPGASVKISCKASGYDFTSFPMHWVRLGPGQRLEWMGWISAANGNTKYSQKFQDRFTITRDTSASIVHMELSSLRSEDTAVYYCARGGYSSGLYRYSNYYYGMTVWGQGTLVTVSS VL: DIVMTQTPLSLSVTPGQPASISCKSSESLLHNDRKTYLFWYLQKPGQPPQLLIFQVSNRFSGVPDRFSGSGSGTDFTLRISRVEAEDVGIYYCLQTTQLPLTFGGGTKVEIK | 0.2 | binds | 
NORO-279A (antibody, V domains shown) VH: QVQLVESGGGVVQPGRSLRLSCAASGFTFTKYGMHWVRQAPGKGLEWVAFIAYDGSVKYYGDSAKGRFAISRDNPKNTVYLQMNSLRAEDTAVYYCAKVEIHYYSNSLLGMDVWGQGTLVTVSS VL: QSVLTQPPSASGTPGQRVTISCSGGNSNIGISYVYWYQHLPGTAPKLLISKNNLRPSGVPDRFSASKSGTSASLAISGLRSEDEAEYYCATLDINMTWVFGGGTKLTVL | 0.2 | binds | 
NORO-310A (antibody, V domains shown) VH: EVQLVESGGGLVRPGESLRLSCVASGFSVSDNYMSWVRQAPGKGLQWVSVIYSGGTTFYTDSVKGRFTISRDKSKNTLFLQMNSLRAEDTAVYFCTRDPSQYYDSRGHYYQTFTPSFDSWGQGTLVTVSS VL: DIQMTQSPSVMSASVGDRVTITCRASQDISDYLAWFQQKPGKVPKRLIYAASSLQNGVPSRFSGSGSGTEFTLTISSLQPEDFATYYCLQHDTYPLTFGGGTKVEIK | 6.2 | binds | 
NORO-251A (antibody, V domains shown) VH: QVQLVESGGGVVQPGRSLRLSCAASGFTFRSYGIHWVRQAPGKGLEWVALISYDGSSKYYADSVKGRFTISRDNSKNTLYLQMNSLRSEDTAVYYCAKVRLTSYSIGWFSFDYWGQGTLVTVSS VL: QSVLTQPPSVSAAPGQKVTISCSGSSSNIANYYVSWYQQLPGRAPKLLIYDNNKRPSGIPDRISGSKSGTSATLGITGLQTGDEADYYCGTWDTSLSAWVFGGGTKLTVL | 0.9 | binds | 
NORO-123 (antibody, V domains shown) VH: QVQLVESGGGVVQPGRSLRLSCSTSGFTFSQYPMHWVRQAPGKGLEWVALISYDGMNKYYADSVRGRFTISRDNSENTQYLQMNSLRGDDTAVYYCARVTGDCTGNRCSYWAYYYYGLDVWGQGTLVTVSS VL: QSALTQPPSASGSPGQSVTISCTGTSSDVGGYKYVSWYQQHPGKAPKLMIYEVTRRPSGVPDRFSGSKSGNTAFLTVSGLQAEDEADYYCGSYAGSTTSGYVFGTGTKVIVL | 5.4 | binds | 
NORO-313.1 (antibody, V domains shown) VH: QVQLVESGGGLVKPGGSLRLSCAASGFTFSDFYMSWIRQAPGKGLEWVGYISSIAGATNYADSVKGRFTISRDSSKRSLYLQMNSLRVEDTAVYYCARMGRLELERRPHYYYPLDVWGQGTLVTVSS VL: not shown |  | binds | 
NORO-296A (antibody, V domains shown) VH: QVQLVESGGGLVKPGGSLRLSCAASGFTFSEYYMSWVRQAPGKALEWVSYITSSFSSTSYADSVKGRFVISRDNAKNSLYLQMNSLRVEDTAVYYCARYGAEYGSRSFYFLDWGQGTLVTVSS VL: QSVLTQPPSVSGAPEQRVTISCTGSSSNIGAGYDVHWYQVLPGIAPKLLIYDNNKRPSGVPDRFSGSKSGTSASLAITGLQAEDEADYYCQSYDSRLSSNVVFGGGTKLTVL |  | binds | 
NORO-303 (antibody, V domains shown) VH: QVQLVESGGGVVQPGRSLRLSCAASGFIFSSYAMHWVRQAPGKGLEWVAVMSYDGNNKYYADSVKGRFTISRDNSKNTLFLQMNSLRPEDTAVYYCARDCRVGWVFTYGMDVWGQGTLVTVSS VL: QSALTQPPSASGSPGQSVTISCTGTSSDVGGYNYVSWYQQHPGKAPKLMMYEISKRPSGVPIRFSGSKSGNTASLTVSGLQAEDEADYYCSSYAGTYNCVVFGGGTKLTVL | 0.5 | binds | 
NORO-315B (antibody, V domains shown) VH: QVQLVESGGGLVKPGGSLRLSCVASGFTFSDYYMTWFRQTPGRGLEWLSYISAIGGYTEYADSVKSRFIISRDNGKKSLYLQMNSLRAEDSGVYYCAREDCHGTSCYSGDWGQGTLVTVSS VL: QSVLTQPPSVSGAPGQRVTISCTGSSSNIGAGYDVHWYQQLPGTAPKLLIYHNTNRPSGVPDRFSGSKSGTSAYLTITGLQAEDEADYYCQSYDRSLSKSRVFSGGTKLTVL | 0.7 | binds | 
NORO-327A (antibody, V domains shown) VH: QVQLEVSGGGLVKPGGSLRLSCAASGFTFTDYYMSWIRQAPGKGLEWVAYISGIMSSTKYADSVKGRFTISRDNGKNSVYLQMNSLTAEDTAVYYCARERVEPPSAVTDFWGQGTLVTVSS VL: QSVLTQSPSVSGAPGQRVTISCTGTSSNIGAGYDVHWYQQFPGTAPKLLISHNTNRPSGVPDRFSGSKSGTSASLAITGLQAEDEADYYCQSFDSSLRGSRVFGGGTKLTVL |  |  | 0.6
NORO-278 (antibody, V domains shown) VH: QVQLVESGGGVVQPGRSLRLSCAASGFTFSSYGMHWVRQAPGKGLEWVAVISYDGSNKYYADSVKGRFTISRDNSKNTLYLQMNSLRAEDTAVYYCAKVTIIAAADLLDYWGQGTLVTVSS VL: QSVLTQPPSVSGAPGQRVTISCTGSSSNIGAGYDVHWYQQLPGTAPKLLIYGNSNRPSGVPDRFSGSKSGTSASLAITGLQAEDEADYYCQSYDSSLSGPVVFGGGTKLTVL | 4 | binds | 
NORO-232A.2 (antibody, V domains shown) VH: QVQLKQWGAGLLKSSETLSLTCAFNGNSFGAFYWSWIRLSPGKGLEWIGEVNYLGGADYNPSLKSRVTMSADTSKRQFSLSLKSVTAADTGVYFCARGRPHDYSPGSYSRPRRYYGLDVWGQGTTVTVSS VL: EIVLTQSPATLSLSPGDSATLSCRASQAVSTTYLAWYQQTRGQAPRLLIHGTYTRAIGIPDKFSGTGSGTDFTLTISGLAPEDFAVYYCQQYSSSPYTFGQGTKIEIT |  |  | 0.3
NORO-263 (antibody, V domains shown) VH: QVQLVESGGGLVKPGGSLRLSCAASGFTLSDYYMSWIRQAPGKGLEWVAYISSSHTSTYYRDSVKGRFTISRDSAKKSLYLQMNSLRVEDTAIYYCARDWVGGRSAYSDHWGQGTLVTVSS VL: SYELTQPPSVSVSPGQTARITCSGDALPRRPAFWYQQKSGQAPVLVMYDDSKRPSGIPERFSGSSSGTVATLTISGAQVEDEADYHCYSTDSSGKERVFGGGTKLTVL | 0.6 | binds | 
